These results are taken from patent US20180312587A1 (ADURO BIOTECH HOLDINGS EUROPE B V, published 2018).

Test [1] deals with T1, hSIRPα expressed on primary human cells (human, UniProt P78324 31-504).
T1 construct: whole, on cells; also called hSIRPα on primary human CD14+ monocytes; on primary human granulocytes
Briefly: flow cytometry, primary CD14+ enriched monocytes, donor 1. As for the experimental part: Next, the binding of hSIRPα.50A to hSIRPα expressed on primary human CD14⁺ monocytes was investigated. In addition, the ability of hSIRPα.50A to block the interaction between hSIRPα and recombinant hCD47/Fc-protein was assessed. For this purpose, CD14+ monocytes were isolated from Ficoll-purified human peripheral blood mononuclear cells (PBMCs) using RosetteSep human monocyte enrichment cocktail (Stemcell). The percentage of monocytes present after the enrichment was determined by flow cytometry on the FACSVerse (BD Biosciences) based on CD14 staining using an APC-Cy7-conjugated mouse-anti-human CD14 detection antibody (BD Biosciences). […] After this labeling procedure, cells were washed two times, resuspended in PBS/1% BSA containing 0.1 μg/mL DAPI (BioLegend), and analysed by flow cytometry on the FACSVerse (BD Biosciences). Data were processed and analysed with FlowJo V10 software (FlowJo, LLC).
To assess the blocking ability of hSIRPα.50A, CD14+ enriched monocytes cells were seeded in 96-well round bottomed tissue culture plates and incubated for 45 minutes with FcR Blocking Reagent (Miltenyi Biotec) and hSIRPα.50A antibody (200 μg/mL and dilutions thereof) in PBS/1% BSA at 4° C. […] After this labeling procedure, cells were washed two times, resuspended in PBS/1% BSA containing 0.1 μg/mL DAPI (BioLegend), and analysed by flow cytometry on the FACSVerse (BD Biosciences). […]
(In general: A flow cytometer gives signals particle by particle.)

For the next test, the target named is T2, human SIRPβ1 (human, UniProt O00241 30-398).
T2 construct: also called hSIRPβ1
The test can be described thus: CELISA, CHO-K1 transfectants. The protocol: (§1) The specificity of monoclonal anti-hSIRPα antibodies (e.g., including the hSIRPα antibodies known in the art, KWAR23 ([…]. Patent CA2939293 A1), 18D5 (Patent WO2017/178653 A2), and various commercially available hSIRPα antibodies) for binding to hSIRPαV1, hSIRPαV1(P74A), and hSIRPβ1 was evaluated by CELISA. Reactivity was confirmed using CHO-K1 cells (ATCC CCL-61) expressing a cDNA encoding the full length open reading frame of hSIRPαV1, hSIRPαV1(P74A), and hSIRPβ1 subcloned into the pCI-neo vector (Promega, Madison, Wis.). CHO-K1.hSIRPαV1, CHO-K1.hSIRPαV1(P74A), and CHO-K1.hSIRPβ1 cells were seeded in culture medium (DMEM-F12 (Gibco) supplemented with 5% New Born Calf Serum (BioWest) and Pen/Strep (Gibco)) in 96-well flat-bottom tissue culture plates and incubated at 37° C., 5% CO₂ and 95% humidity for 24 hours. Subsequently, culture medium was removed and cells were incubated for 1 hour at 37° C., 5% CO₂ and 95% humidity with purified hSIRPα antibodies (used at 10 μg/ml and dilutions thereof). Next, cells were washed with PBS-T and incubated for 1 hour at 37° C., 5% CO₂ and 95% humidity with either goat-anti-mouse IgG-HRP (Southern Biotech), goat-anti-human IgG-HRP (Jackson Immuno Research), or goat-anti-rabbit IgG-HRP (Southern Biotech). Subsequently, cells were washed three times with PBS-T and immunoreactivity against hSIRPαV1, hSIRPαV1(P74A), and hSIRPβ1 was visualized with TMB Stabilized Chromogen (Invitrogen). Reactions were stopped with 0.5 M H₂SO₄ and absorbances were read at 450 and 610 nm.

In the next test the target is T3, hSIRPαV1(P74A) (human, UniProt P78324 31-504).
T3 construct: also called P74A variant of hSIRPαV1
Briefly: CELISA, CHO-K1 transfectants. The protocol:
as §1

T3 sequence (P78324 31-504 P74A limits assumed): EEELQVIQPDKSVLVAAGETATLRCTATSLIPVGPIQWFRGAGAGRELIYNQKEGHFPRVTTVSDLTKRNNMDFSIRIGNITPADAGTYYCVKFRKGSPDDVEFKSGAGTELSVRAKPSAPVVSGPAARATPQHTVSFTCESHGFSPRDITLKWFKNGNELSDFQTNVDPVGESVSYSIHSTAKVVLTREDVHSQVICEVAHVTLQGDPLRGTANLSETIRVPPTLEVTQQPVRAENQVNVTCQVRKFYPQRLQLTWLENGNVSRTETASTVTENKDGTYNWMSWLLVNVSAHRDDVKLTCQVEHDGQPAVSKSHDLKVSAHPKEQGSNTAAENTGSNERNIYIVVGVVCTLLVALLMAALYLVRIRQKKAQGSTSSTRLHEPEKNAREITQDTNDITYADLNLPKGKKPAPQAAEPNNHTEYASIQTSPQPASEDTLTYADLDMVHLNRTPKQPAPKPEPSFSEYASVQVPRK
T2 sequence (O00241 30-398 limits assumed): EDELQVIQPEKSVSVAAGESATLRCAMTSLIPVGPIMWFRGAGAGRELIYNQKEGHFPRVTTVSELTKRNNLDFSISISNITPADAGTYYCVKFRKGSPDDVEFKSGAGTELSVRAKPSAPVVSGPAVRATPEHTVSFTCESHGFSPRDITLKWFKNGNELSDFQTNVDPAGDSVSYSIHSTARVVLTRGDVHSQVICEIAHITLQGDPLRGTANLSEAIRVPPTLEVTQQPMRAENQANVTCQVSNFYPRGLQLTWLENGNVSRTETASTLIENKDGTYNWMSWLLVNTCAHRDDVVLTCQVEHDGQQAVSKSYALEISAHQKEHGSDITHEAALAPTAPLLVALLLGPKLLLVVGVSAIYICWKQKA
T1 sequence (P78324 31-504): as the sequence (P78324 31-504 P74A limits assumed) above, with A44P counted along it

B1: hSIRPα.50A (antibody, V domains shown)
VH: QVQLQQSGPELVKPGASVRISCKASGFTFTNYYIHWVKQRPGQGLEWIGWIYPGNVNTKYNEKFKAKATLTADKSSTTAYMQLSSLASEDSAVYFCARPTIIATDFDVWGAGTTVTVSS
VL: DIVMTQSHKFMSTSVGDRVNITCKASQGVGTAVGWYQQKPGQSPRLLIYWASTRHTGVPDRFTGSGSGTDFSLAISNVQSEDLADYFCQQYSTYPFTFGGGTNLEIK
notes: light chain constant domain not tied; also called mouse hSIRPα.50A; hSIRPα.50A.mIgG1
As a reminder, the EC50 is the concentration that produces a half-maximal response. In test [1], B1 registered an EC50 of 7.38 nM. This counts as single-digit nanomolar.

B2: KWAR23 (antibody, V domains shown)
VH: EVQLQQSGAELVKPGASVKLSCTASGFNIKDYYIHWVQQRTEQGLEWIGRIDPEDGETKYAPKFQDKATITADTSSNTAYLHLSSLTSEDTAVYYCARWGAYWGQGTLVTVSS
VL: QIVLTQSPAIMSASPGEKVTLTCSASSSVSSSYLYWYQQKPGSSPKLWIYSTSNLASGVPARFSGSGSGTSYSLTISSMEAEDAASYFCHQWSSYPRTFGAGTKLELK
Regarding B2, the 50% effective concentration (EC50) with human SIRPβ1 amounted to 0.065 nM; in the test with hSIRPαV1(P74A), 0.077 nM.
